# B1: 68F2: anti-IL-6 clone from VL shuffling of 20A4; Fab and human IgG1 formats (antibody, listed as Lama glama, V domains shown)
# VH: EVQLQESGPGLVKPSQTLSLTCTVSGGSITTRYYAWSWIRQPPGKGLEWMGVIDYDGDTYYSPSLKSRTSISWDTSKNQFSLQLSSVTPEDTAVYYCARDPDVVTGFHYDYWGQGTQVTVSS
# VL: QSALTQPPLVSGTPGQTVTISCAGANNDIGTYAYVSWYQQLPGTAPKLLIYKVTTRASGIPSRFSGSKSGNTASLTISGLQSEDEADYYCASYRNFNNAVFGRGTHLTVLG
# B2: 61H7: anti-IL-6 clone from VH chain shuffling of 24D10; Fab and IgG formats (antibody, V domains shown)
# VH: EVQLVESGGGLVQPGGSLRLSCAASGFTFSSYRMYWVRQPPGKGLEWVSAISAGGGSTYYGDSVKGRFTISRDNAKNTVYLQMNSLKPEDTAVYYCANRAGWGMGDYWGQGTQVTVSS
# VL: QTVVTQEPSLSVSPGGTVTLTCGLSSGSVTASNYPGWFQQTPGQAPRALIYSTNDRHSGVPSRFSGSISGNKAALTITGAQPEDEADYYCALDIGDITEFGGGTHLTVLG
# B3: 61B7: 24D10 chain-shuffled Fab (antibody, V domains shown)
# VH: ELQLVESGGGLVQPGGSLRLSCAASGFTFSSYAMSWVRQAPGKGPEWVSRISSGGGSAYYADSVKGRFTISRDNAKNTLYLQMNSLKPEDTAVYYCANRAGWGMGDYWGQGTQVTVSS
# VL: QTVVTQEPSLSVSPGGTVTLTCGLSSGSVTASNYPGWFQQTPGQAPRALIYSTNDRHSGVPSRFSGSISGNKAALTITGAQPEDEADYYCALDIGDITEFGGGTHLTVLG
# B4: 61H7 (12.8) (antibody, V domains shown)
# VH: EVQLVESGGGLVQPGGSLRLSCAASGFTFSSYRMYWVRQPPGKGLEWVSAISAGGGSTYYGDSVKGRFTISRDNAKNTVYLQMNSLKPEDTAVYYCANRAGWGMGDYWGQGTQVTVSS
# VL: QTVVTQEPSLSVSPGGTVTLTCGLSSGSVTASNYPGWFQQTPGQAPRALIYSTNDRHSGVPSRFSGSISGNKAALTITGAQPEDEADYYCALDIGDITEFGGGTHLTVLG
# B5: 61H7 (A8.11) (antibody, V domains shown)
# VH: EVQLVESGGGLVQPGGSLRLSCAASGFTFSSYRMYWVRQPPGKGLEWVSAISAGGGSTYYGDSVKGRFTISRDNAKNTVYLQMNSLKPEDTAVYYCANRAGWGMGDYWGQGTQVTVSS
# VL: QTVVTQEPSLSVSPGGTVTLTCGLSSGSVTASNYPGWFQQTPGQAPRALIYSTNDRHSGVPSRFSGSISGNKAALTITGAQPEDEADYYCALDIGDITEFGGGTHLTVLG
# Experiments:
# [1] = system: induced psoriatic lesions; experiment: Humanized mouse psoriasis xenograft model (epidermal ridge thickness); format: in vivo; conditions: mean±s.e.m.; BNX mice
# Description: A mouse xenograft model was employed to evaluate the prophylactic efficacy of clone 68F2 on the development of induced psoriatic lesions. Specifically, BNX mice were transplanted with 5 mm diameter full-thickness skin biopsies from non-involved skin from psoriasis patients (1 per mouse). After 3 weeks, the transplants were injected with 0.5×10^6 activated PBMCs. Treatment of mice with clone 68F2, anti-TNF antibody (Remicade), or betamethasone dipropionate (positive control) was begun 1 day before the activated cells were injected into the transplants.
# Treatment efficacy was determined by epidermal ridge thickness, as measured by light microscopy. Significance between groups was analyzed statistically using analysis of variance (ANOVA) followed by post-hoc Least Square Difference (LSD) tests to establish statistical significance differences between treatment groups. A value of p<0.05 denoted a significant difference between groups.
# cynomolgus monkey IL-6 [2] = molecular target: T1, cynomolgus monkey IL-6 (Macaca fascicularis, UniProt P79341); experiment: Surface plasmon resonance (Biacore), cynomolgus monkey IL-6; format: binding; conditions: purified chain-shuffled Fabs
# T1 construct: His
# Description: (§1) VL chain shuffling was used to improve the affinity of the Fabs 17F10, 18C7, 18C9, 18C11, 20A4, 29B11, 16D2 and 28A6. In this method, the heavy chain of these clones (as a VHCH1 fragment) was reintroduced into the primary phagemid-light chain library (see Example 1). Affinity selections were performed to select for chain shuffled Fabs with an improved affinity for IL-6. The binding kinetics of chain shuffled Fabs were evaluated by surface plasmon resonance (Biacore) using both bacterially and eukaryotically produced human IL-6, and cynomolgus monkey IL-6 (Tables 5-7). The VH and VL amino acid sequences of exemplary IL-6-specific Fabs selected by the VL chain shuffling method are set forth in Table 14 below.
# IL-6 = experiment: Serum amyloid A (SAA) mouse model, induction by injected IL-6; format: in vivo; set-up: SAA, Mean / SAA, Mouse1 / SAA, Mouse2 / SAA, Mouse3 / SAA, Mouse4 / SAA, Mouse5 / SAA, Mouse6: unit not given here; conditions: for SAA, Mouse1 / SAA, Mouse2 / SAA, Mouse3 / SAA, Mouse4 / SAA, Mouse5 / SAA, Mouse6 / SAA, Mean: 0.1 μg IL-6; for SAA, Mean: mean of 6 mice; for in vivo efficacy (block of SAA induction): Balb/c mice, i.v., 0.1 ug IL-6
# Description: The in vivo efficacy of clones 68F2 and 61H7 was further investigated by measuring the ability of these antibodies to block serum amyloid A (SAA) induction in response to injected IL-6. General methods for performing this assay are set forth in WO2006/119115A2, which is hereby incorporated by reference in its entirety. […] Four hours after administration of the antibody, the mice were injected with 0.1 ug of IL-6. After a further 16 hours, blood was taken from the mice and the concentration of Serum Amyloid A was determined by ELISA. The dose responses are also graphically depicted in FIG. 13.
# RXF393 cells = experiment: Renal cell cancer mouse xenograft model; format: in vivo
# Description: The in vivo efficacy of clones 68F2 was investigated in a renal cell cancer mouse xenograft model. […] Briefly, RXF393 cells (2×10^6) were injected subcutaneously at both lateral sides of a nude mouse. Tumors were allowed to grow to a volume between of 50 en 300 mm^3, prior to antibody administration. 90% of the injected mice developed a tumor. 40 mice were split into 5 groups of 8 mice. Each group was received intraperatoneal injection of either PBS (control) or a specific dose of clone 68F2 (1, 3, 10, or 30 mg/kg). Tumor size and survival was monitored twice per week.
# [3] = molecular target: T2, eukaryotically produced human IL-6 (Homo sapiens, UniProt P05231); experiment: Surface plasmon resonance (Biacore), eukaryotically produced human IL-6 coated on CM5 chip; format: binding; conditions: for ka / kd: Euk IL-6, purified 24D10 chain-shuffled Fabs; for RANKED euk (off-rate) / Average binding: periplasmic fractions; for RANKED euk (off-rate): 24D10 chain-shuffled Fabs; for Average binding: average over the IL-6 forms
# T2 construct: purchased Humanzyme HZ-1044; host or cells: Human Embryonic kidney cells
# Description: (§2) The binding kinetics of IL-6-specific Fabs that were able to cross-compete with the B-E8 antibody was assessed using surface plasmon resonance (Biacore). Specifically, biotinylated (prokaryotic) IL-6 was captured on a streptavidin biacore sensor chip (CM5-SA) and different concentrations of purified Fabs were injected during 3 minutes following by a 5 minute wash with buffer. From the washing phase the off-rate (kd) was determined, while from the injection phase the on-rate (ka) was calculated using the concentration and off-rate as parameters. […] The binding kinetics of antagonistic purified Fabs (Table 3) and periplasmic fractions of Fab-expressing bacteria (Table 4) were also evaluated by surface plasmon resonance (Biacore) using both bacterially and eukaryotically produced human IL-6 directly coated on a CM5 chip. The Fabs tested had off-rates between 6×10^−4 and 2×10^−5 s^−1.
# as §1
# (§3) VH chain shuffling was also used to improve the affinity of the Fab 24D10. In this method, the light chain of 24D10 was reintroduced into the primary phagemid-heavy chain library (see Example 1) and selected using an off-rate assay. In this type of selection, the phage were allowed to bind to antigen on a substrate for 1.5 to 2 hours. At round 2, after 15 washes with PBS-Tween, an additional wash was performed with the presence of excess soluble IL-6. […] This procedure avoids re-binding of such phage to the coated target. […] The binding kinetics of chain shuffled Fabs and the benchmark antibodies, BE8 and GL18, were evaluated by surface plasmon resonance (Biacore) using both bacterially and eukaryotically produced human IL-6 (Tables 8 and 9). The VH and VL amino acid sequences of exemplary IL-6-specific Fabs selected by the VH chain shuffling method are set forth in Table 14 below. […]
# [4] = molecular target: T3, bacterially produced human IL-6 (Homo sapiens, UniProt P05231); experiment: Surface plasmon resonance (Biacore), bacterially produced human IL-6 coated on CM5 chip; format: binding; conditions: for ka / kd: Bact, purified 24D10 chain-shuffled Fabs; for Bact (off-rate): periplasmic fractions, 24D10 chain-shuffled Fabs
# T3 construct: His
# Description: as §2, §1, §3
# cynomolgus monkey IL-6 [5] = molecular target: T1, cynomolgus monkey IL-6; experiment: Surface plasmon resonance (Biacore), cynomolgus monkey IL-6; format: binding; conditions: periplasmic fractions, 24D10 chain-shuffled Fabs
# human IL-6 = molecular target: T4, human IL-6 (Homo sapiens, UniProt P05231); experiment: IL-6 neutralizing bioassay, B9 cell proliferation ([3H]thymidine); format: cell-based; conditions: B9 cells; relative to 68F2 average IC50
# T4 construct: host or cells: IL-6 added from outside to murine 7TD1 hybridoma cells
# Description: The in vitro efficacy of clones 129D3, 68F2, 61H7, 133A9, 133H2, 133E5 and 132E7 were determined using a cell-based neutralizing bioassay using the B9 cell line, essentially as described in Helle et al. 1988, Eur. J. Immunol 18; 1535-1540. B9 cells are derived from the murine B cell hybridoma cell line B13.29, which require IL-6 for survival and proliferation and respond to very low concentrations of human IL-6. […] B9 cells were seeded in IL-6-free medium at 5000 cells/200 microl in flat-bottom wells in the presence of IL-6, with and without antibodies. Proliferation was measured by a [3H]thymidine pulse at 64-72 h.
# T1 sequence (P79341 28-212): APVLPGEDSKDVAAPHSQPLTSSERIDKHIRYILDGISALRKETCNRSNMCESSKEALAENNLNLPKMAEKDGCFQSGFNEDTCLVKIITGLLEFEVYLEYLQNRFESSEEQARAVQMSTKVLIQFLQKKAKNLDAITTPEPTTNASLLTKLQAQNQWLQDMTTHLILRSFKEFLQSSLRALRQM
# T2 sequence (P05231 30-212): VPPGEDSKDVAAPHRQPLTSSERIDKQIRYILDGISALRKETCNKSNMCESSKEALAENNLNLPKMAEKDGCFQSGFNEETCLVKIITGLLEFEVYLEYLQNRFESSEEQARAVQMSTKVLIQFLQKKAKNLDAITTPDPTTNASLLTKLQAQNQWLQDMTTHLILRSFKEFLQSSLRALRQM
# T3 sequence (P05231 30-212): as above
# T4 sequence (P05231 30-212): as above
molecule,measurement,setting,value
Remicade: anti-TNF antibody,epidermal ridge thickness,[1],125 μm
"CCC(=O)OCC(=O)[C@@]1(OC(=O)CC)[C@@H](C)C[C@H]2[C@@H]3CCC4=CC(=O)C=C[C@]4(C)[C@@]3(F)[C@@H](O)C[C@@]21C [betamethasone, betamethasone dipropionate]",epidermal ridge thickness,[1],83 μm
B1,Koff HIS-cyIL-6,cynomolgus monkey IL-6 [2],0.00075 s⁻¹
same,"SAA, Mouse1",IL-6; Ab dose/mouse 0.31 μg,83
same,"SAA, Mouse2",IL-6; Ab dose/mouse 0.31 μg,129
same,"SAA, Mouse3",IL-6; Ab dose/mouse 0.31 μg,116
same,"SAA, Mouse4",IL-6; Ab dose/mouse 0.31 μg,132
same,"SAA, Mouse5",IL-6; Ab dose/mouse 0.31 μg,145
same,"SAA, Mouse6",IL-6; Ab dose/mouse 0.31 μg,136
same,"SAA, Mean",IL-6; Ab dose/mouse 0.31 μg,123.5
same,"SAA, Mouse1",IL-6; Ab dose/mouse 1.25 μg,69
same,"SAA, Mouse2",IL-6; Ab dose/mouse 1.25 μg,67
same,"SAA, Mouse3",IL-6; Ab dose/mouse 1.25 μg,81
same,"SAA, Mouse4",IL-6; Ab dose/mouse 1.25 μg,73
same,"SAA, Mouse5",IL-6; Ab dose/mouse 1.25 μg,47
same,"SAA, Mouse6",IL-6; Ab dose/mouse 1.25 μg,83
same,"SAA, Mean",IL-6; Ab dose/mouse 1.25 μg,70.0
same,"SAA, Mouse1",IL-6; Ab dose/mouse 5 μg,76
same,"SAA, Mouse2",IL-6; Ab dose/mouse 5 μg,38
same,"SAA, Mouse3",IL-6; Ab dose/mouse 5 μg,46
same,"SAA, Mouse4",IL-6; Ab dose/mouse 5 μg,63
same,"SAA, Mouse5",IL-6; Ab dose/mouse 5 μg,43
same,"SAA, Mouse6",IL-6; Ab dose/mouse 5 μg,40
same,"SAA, Mean",IL-6; Ab dose/mouse 5 μg,51.0
same,in vivo efficacy (block of SAA induction),IL-6,in vivo efficacy at least equal to the high potency benchmark controls GL18 and CNTO136
same,epidermal ridge thickness,[1],125 μm
same,median survival time,RXF393 cells; 1 mg/kg,21 days
same,median survival time,RXF393 cells; 3 mg/kg,21 days
same,median survival time,RXF393 cells; 10 mg/kg,27.5 days
same,median survival time,RXF393 cells; 30 mg/kg,21 days
same,tumor outgrowth,"RXF393 cells; 1, 3, 10, 30 mg/kg",effective at inhibiting tumor outgrowth in a dose-dependent manner with saturating effects at 10 mg/kg dose
B2,ka,[3],120000 M⁻¹ s⁻¹
same,kd,[3],5.5e-05 s⁻¹
same,binding,"[3]; periplasmic fractions ('pur' = purified Fab), IL-6 form not stated",176
same,RANKED euk (off-rate),[3],9.32E−05
same,Average binding,[3],635 RU
same,ka,[4],120000 M⁻¹ s⁻¹
same,kd,[4],2e-06 s⁻¹
same,Bact (off-rate),[4],7.54E−05
same,"SAA, Mouse1",IL-6; Ab dose/mouse 0.31 μg,184
same,"SAA, Mouse2",IL-6; Ab dose/mouse 0.31 μg,148
same,"SAA, Mouse3",IL-6; Ab dose/mouse 0.31 μg,124
same,"SAA, Mouse4",IL-6; Ab dose/mouse 0.31 μg,140
same,"SAA, Mouse5",IL-6; Ab dose/mouse 0.31 μg,133
same,"SAA, Mouse6",IL-6; Ab dose/mouse 0.31 μg,76
same,"SAA, Mean",IL-6; Ab dose/mouse 0.31 μg,134.2
same,"SAA, Mouse1",IL-6; Ab dose/mouse 1.25 μg,66
same,"SAA, Mouse2",IL-6; Ab dose/mouse 1.25 μg,29
same,"SAA, Mouse3",IL-6; Ab dose/mouse 1.25 μg,33
same,"SAA, Mouse4",IL-6; Ab dose/mouse 1.25 μg,30
same,"SAA, Mouse5",IL-6; Ab dose/mouse 1.25 μg,24
same,"SAA, Mouse6",IL-6; Ab dose/mouse 1.25 μg,35
same,"SAA, Mean",IL-6; Ab dose/mouse 1.25 μg,36.2
same,"SAA, Mouse1",IL-6; Ab dose/mouse 5 μg,47
same,"SAA, Mouse2",IL-6; Ab dose/mouse 5 μg,62
same,"SAA, Mouse3",IL-6; Ab dose/mouse 5 μg,47
same,"SAA, Mouse4",IL-6; Ab dose/mouse 5 μg,40
same,"SAA, Mouse5",IL-6; Ab dose/mouse 5 μg,46
same,"SAA, Mouse6",IL-6; Ab dose/mouse 5 μg,47
same,"SAA, Mean",IL-6; Ab dose/mouse 5 μg,48.2
same,in vivo efficacy (block of SAA induction),IL-6,in vivo efficacy at least equal to the high potency benchmark controls GL18 and CNTO136
same,cyno (off-rate),cynomolgus monkey IL-6 [5],9.45E−05
B3,ka,[3],330000 M⁻¹ s⁻¹
same,kd,[3],6.6e-05 s⁻¹
same,RANKED euk (off-rate),[3],9.79E−05
same,Average binding,[3],597 RU
same,ka,[4],350000 M⁻¹ s⁻¹
same,kd,[4],5.7e-05 s⁻¹
same,Bact (off-rate),[4],9.07E−05
same,cyno (off-rate),cynomolgus monkey IL-6 [5],1.16E−04
B4,Rel. Potency,human IL-6,0.4
B5,Rel. Potency,human IL-6,0.5
